B1: PGT-135 (antibody, V domains shown)
VH: QLQMQESGPGLVKPSETLSLSCTVSGDSIRGGEWGDKDYHWGWVRHSAGKGLEWIGSIHWRGTTHYKESLRRRVSMSIDTSRNWFSLRLASVTAADTAVYFCARHRHHDVFMLVPIAGWFDVWGPGVQVTVSS
VL: EIVMTQSPDTLSVSPGETVTLSCRASQNINKNLAWYQYKPGQSPRLVIFETYSKIAAFPARFVASGSGTEFTLTINNMQSEDVAVYYCQQYEEWPRTFGQGTKVDIK
B2: PGT-131 (antibody, V domains shown)
VH: QVQLQESGPGLVKPSETLSLTCTVSGDSINTGHHYWGWVRQVPGKGPEWIAHIHYNTAVLHNPALKSRVTISIFTLKNLITLSLSNVTAADTAVYFCVRSGGDILYYIEWQKPHWFYPWGPGILVTVSS
VL: QSALTQPPSASGSLGQSLTISCSGTGSDIGSWNFVSWYQQFPGRAPNLIIFEVNRRRSGVPDRFSGSKSGNTASLTVSGLRSEDEAEYFCSSLSGRWDIVFGGGTKVTVL
B3: PGT-123 (antibody, V domains shown)
VH: QLHLQESGPGLVKPPETLSLTCSVSGASINDAYWSWIRQSPGKRPEWVGYVHHSGDTNYNPSLKRRVTFSLDTAKNEVSLKLVDLTAADSATYFCARALHGKRIYGIVALGELFTYFYMDVWGKGTAVTVSS
VL: SSMSVSPGETAKISCGKESIGSRAVQWYQQKPGQPPSLIIYNNQDRPAGVPERFSASPDFRPGTTATLTITNVDAEDEADYYCHIYDARGGTNWVFDRGTTLTVL

Key:
Experiment in all cases: cell-based or functional assay
[1] = biological target: Env of all HIV-1 pseudoviruses of the cross-clade 162-pseudovirus panel (n = 162)
[2] = biological target: HIV-1 JR-CSF Env N262A (HIV-1 JR-CSF) (UniProt P20871)
[3] = biological target: HIV-1 JR-CSF Env Q337A (HIV-1 isolate JR-CSF) (UniProt P20871)
[4] = biological target: HIV-1 JR-CSF Env T341A (HIV-1 isolate JR-CSF) (UniProt P20871)
[5] = biological target: HIV-1 JR-CSF Env S393A (HIV-1 (isolate JR-CSF)) (UniProt P20871)
[6] = biological target: HIV-1 JR-CSF Env F317A (HIV-1 isolate JR-CSF) (UniProt P20871)
[7] = biological target: HIV-1 JR-CSF Env N302A (HIV-1 JR-CSF) (UniProt P20871)
[8] = biological target: HIV-1 Env of isolate JR-CSF (HIV-1) (UniProt P20871)
[9] = biological target: HIV-1 JR-CSF Env I414A (HIV-1 (isolate JR-CSF)) (UniProt P20871)
[10] = biological target: HIV-1 JR-CSF Env F210A (HIV-1 JR-CSF) (UniProt P20871)
[11] = biological target: HIV-1 JR-CSF Env V292A (HIV-1 JR-CSF) (UniProt P20871)
[12] = biological target: HIV-1 JR-CSF Env N355A (HIV-1 isolate JR-CSF) (UniProt P20871)
[13] = biological target: HIV-1 JR-CSF Env K421A (HIV-1 (isolate JR-CSF)) (UniProt P20871)
[14] = biological target: Env of the clade AG HIV-1 pseudoviruses of the cross-clade 162-pseudovirus panel (n = 10)
[15] = biological target: HIV-1 JR-CSF Env D417A (HIV-1 (isolate JR-CSF)) (UniProt P20871)
[16] = biological target: HIV-1 JR-CSF Env I423A (HIV-1 (isolate JR-CSF)) (UniProt P20871)
[17] = biological target: HIV-1 JR-CSF Env R327A (HIV-1 isolate JR-CSF) (UniProt P20871)
[18] = biological target: HIV-1 JR-CSF Env N241A (HIV-1 JR-CSF) (UniProt P20871)
[19] = biological target: HIV-1 JR-CSF Env L416A (HIV-1 (isolate JR-CSF)) (UniProt P20871)
[20] = biological target: HIV-1 JR-CSF Env R419A (HIV-1 (isolate JR-CSF)) (UniProt P20871)
[21] = biological target: HIV-1 JR-CSF Env T319A (HIV-1 isolate JR-CSF) (UniProt P20871)
[22] = biological target: HIV-1 JR-CSF Env I415A (HIV-1 (isolate JR-CSF)) (UniProt P20871)
[23] = biological target: HIV-1 JR-CSF Env T388A (HIV-1 (isolate JR-CSF)) (UniProt P20871)
[24] = biological target: HIV-1 JR-CSF Env S387A (HIV-1 (isolate JR-CSF)) (UniProt P20871)
[25] = biological target: HIV-1 JR-CSF Env E321aA (HIV-1 isolate JR-CSF) (UniProt P20871)
[26] = biological target: HIV-1 JR-CSF Env N339A (HIV-1 isolate JR-CSF) (UniProt P20871)
[27] = biological target: Env of the clade A HIV-1 pseudoviruses of the cross-clade 162-pseudovirus panel (n = 26)
[28] = biological target: HIV-1 JR-CSF Env Q422A (HIV-1 (isolate JR-CSF)) (UniProt P20871)
[29] = biological target: HIV-1 JR-CSF Env K305A (HIV-1 JR-CSF) (UniProt P20871)
[30] = biological target: HIV-1 JR-CSF Env I424A (HIV-1 (isolate JR-CSF)) (UniProt P20871)
[31] = biological target: HIV-1 JR-CSF Env N392Q (HIV-1 (isolate JR-CSF)) (UniProt P20871)
[32] = biological target: Env of the clade C HIV-1 pseudoviruses of the cross-clade 162-pseudovirus panel (n = 27)
[33] = biological target: HIV-1 JR-CSF Env R304A (HIV-1 JR-CSF) (UniProt P20871)
[34] = biological target: HIV-1 JR-CSF Env N332A (HIV-1 isolate JR-CSF) (UniProt P20871)
[35] = biological target: Env of the clade F HIV-1 pseudoviruses of the cross-clade 162-pseudovirus panel (n = 15)
[36] = biological target: Env of the clade B HIV-1 pseudoviruses of the cross-clade 162-pseudovirus panel (n = 31)
[37] = biological target: HIV-1 JR-CSF Env T413A (HIV-1 (isolate JR-CSF)) (UniProt P20871)
[38] = biological target: HIV-1 JR-CSF Env N301A (HIV-1 JR-CSF) (UniProt P20871)
[39] = biological target: HIV-1 Env of isolate 92TH021 (HIV-1)

Binder	Median IC50 against viruses neutralized with an IC50 <50 µg/ml [1]	Fold IC50 increase relative to wild-type [2]	Fold IC50 increase relative to wild-type [3]	Fold IC50 increase relative to wild-type [4]	Fold IC50 increase relative to wild-type [5]	Fold IC50 increase relative to wild-type [6]	Fold IC50 increase relative to wild-type [7]	Fold IC50 increase relative to wild-type [9]	Fold IC50 increase relative to wild-type [10]	Fold IC50 increase relative to wild-type [11]	Fold IC50 increase relative to wild-type [12]	Fold IC50 increase relative to wild-type [13]	Median IC50 against viruses neutralized with an IC50 <50 µg/ml [14]	Fold IC50 increase relative to wild-type [15]	Fold IC50 increase relative to wild-type [16]	Fold IC50 increase relative to wild-type [17]	Fold IC50 increase relative to wild-type [18]	Fold IC50 increase relative to wild-type [19]	Fold IC50 increase relative to wild-type [20]	Fold IC50 increase relative to wild-type [21]	other results
B1	0.17 µg/mL	2.1 fold	2.1 fold	0.6 fold	0.9 fold	0.5 fold	0.8 fold	1.2 fold	1.3 fold	2 fold	0.8 fold	0.3 fold	27.4 µg/mL	5 fold	0.1 fold	0.67 fold	0.1 fold	1.2 fold	3.9 fold	0.4 fold	Primary Neutralization Index (B cell culture well 5343 B8) [8]: 1.8; Primary Neutralization Index (B cell culture well 5344 E16) [8]: 1.5; Fold IC50 increase relative to wild-type [22]: 5 fold; Fold IC50 increase relative to wild-type [23]: 0.1 fold; Fold IC50 increase relative to wild-type [24]: 0.6 fold; Fold IC50 increase relative to wild-type [25]: 0.8 fold; Fold IC50 increase relative to wild-type [26]: 1.2 fold; Median IC50 against viruses neutralized with an IC50 <50 µg/ml [27]: 0.64 µg/mL; Fold IC50 increase relative to wild-type [28]: 0.8 fold; Fold IC50 increase relative to wild-type [29]: 0.2 fold; Fold IC50 increase relative to wild-type [30]: 0.1 fold; Fold IC50 increase relative to wild-type [31]: > 250 fold; Median IC50 against viruses neutralized with an IC50 <50 µg/ml [32]: 0.05 µg/mL; Fold IC50 increase relative to wild-type [33]: 0.7 fold; Fold IC50 increase relative to wild-type [34]: > 250 fold; Median IC50 against viruses neutralized with an IC50 <50 µg/ml [35]: 0.21 µg/mL; Median IC50 against viruses neutralized with an IC50 <50 µg/ml [36]: 0.15 µg/mL; Fold IC50 increase relative to wild-type [37]: 0.3 fold; Fold IC50 increase relative to wild-type [38]: 0.5 fold
B2	0.52 µg/mL	0.4 fold	1.3 fold	1.3 fold	1.1 fold	96 fold	1 fold	1 fold	1 fold	1.4 fold	2.3 fold	11 fold	0.18 µg/mL	1 fold	> 80 fold	19 fold	0.7 fold	1 fold	1.7 fold	0.9 fold	Primary Neutralization Index (B cell culture well 5136 H1) [8]: 6.2; Fold IC50 increase relative to wild-type [22]: 0.6 fold; Fold IC50 increase relative to wild-type [23]: 0.6 fold; Fold IC50 increase relative to wild-type [24]: 1.1 fold; Primary Neutralization Index (B cell culture well 5136 H1) [39]: 354; Fold IC50 increase relative to wild-type [25]: 1.8 fold; Fold IC50 increase relative to wild-type [26]: 1 fold; Median IC50 against viruses neutralized with an IC50 <50 µg/ml [27]: 0.09 µg/mL; Fold IC50 increase relative to wild-type [28]: 1.9 fold; Fold IC50 increase relative to wild-type [30]: 4.8 fold; Fold IC50 increase relative to wild-type [31]: 0.4 fold; Median IC50 against viruses neutralized with an IC50 <50 µg/ml [32]: 0.78 µg/mL; Fold IC50 increase relative to wild-type [33]: 1.5 fold; Fold IC50 increase relative to wild-type [34]: 0.5 fold; Median IC50 against viruses neutralized with an IC50 <50 µg/ml [35]: 0.55 µg/mL; Median IC50 against viruses neutralized with an IC50 <50 µg/ml [36]: 0.07 µg/mL; Fold IC50 increase relative to wild-type [37]: 0.6 fold; Fold IC50 increase relative to wild-type [38]: > 170 fold
B3	0.03 µg/mL	0.5 fold	0.5 fold	0.3 fold	0.6 fold	3.1 fold	1.3 fold	0.3 fold	2.8 fold	1.7 fold	0.5 fold	0.9 fold	0.61 µg/mL	0.7 fold	1.5 fold	1.7 fold	0.8 fold	0.9 fold	0.7 fold	0.4 fold	Primary Neutralization Index (B cell culture well 4858 P8) [8]: 1.6; Fold IC50 increase relative to wild-type [22]: 0.4 fold; Fold IC50 increase relative to wild-type [23]: 0.2 fold; Fold IC50 increase relative to wild-type [24]: 0.9 fold; IC50 (µg/mL), pseudovirus neutralization [39]: > 50 µg/mL; Fold IC50 increase relative to wild-type [25]: 0.6 fold; Fold IC50 increase relative to wild-type [26]: 0.8 fold; Median IC50 against viruses neutralized with an IC50 <50 µg/ml [27]: 0.02 µg/mL; Fold IC50 increase relative to wild-type [28]: 0.8 fold; Fold IC50 increase relative to wild-type [29]: 1.9 fold; Fold IC50 increase relative to wild-type [30]: 0.5 fold; Fold IC50 increase relative to wild-type [31]: 1 fold; Median IC50 against viruses neutralized with an IC50 <50 µg/ml [32]: 0.01 µg/mL; Fold IC50 increase relative to wild-type [33]: 0.7 fold; Fold IC50 increase relative to wild-type [34]: > 200 fold; Median IC50 against viruses neutralized with an IC50 <50 µg/ml [35]: 0.09 µg/mL; Median IC50 against viruses neutralized with an IC50 <50 µg/ml [36]: 0.02 µg/mL; Fold IC50 increase relative to wild-type [37]: 0.4 fold; Fold IC50 increase relative to wild-type [38]: 1 fold

From US20200024330A1
